biological target: human TNF-alpha (hTNF-alpha) (human) (UniProt P01375); test: saturation binding of [125I]TNF-alpha on yeast

Substance | Kd [nM]
mutant clone 6 TNFrED-agglutinin fusion (H34P + S57I) displayed on yeast (from UniProt P20840 330-650) | 1.71
mutant clone 11 TNFrED-agglutinin fusion (S87P) displayed on yeast (from UniProt P20840 330-650) | 1.31
wild-type TNFrED-agglutinin fusion displayed on the surface of S. cerevisiae BJ2168 (from UniProt P20840 330-650) | 2.04

Reference: patent publication US20050074840A1
